Source: publication PMC5167558 (Biochemistry, 2015)

Biological target: GST-SPAK 63–390 (mouse, UniProt Q9Z1W9 63-390)
Test: pull-down

binding result: binds
B1: His6-SPAK 63–390 (domain or fragment)
chain: not shown
